From patent US20140308201A1 (Novartis, published 2014)

Legend:
Human FGFR2 IIIb D1-3 [1] = biological target: T1, Human FGFR2 IIIb D1-3 (human); experiment: SPR Biacore, method as Example 2
T1 construct: Extracellular domains D1-3 with C-terminal tag, made in HEK293T; also called recombinant human FGFR2 IIIb; hFGFR2
T1 chain: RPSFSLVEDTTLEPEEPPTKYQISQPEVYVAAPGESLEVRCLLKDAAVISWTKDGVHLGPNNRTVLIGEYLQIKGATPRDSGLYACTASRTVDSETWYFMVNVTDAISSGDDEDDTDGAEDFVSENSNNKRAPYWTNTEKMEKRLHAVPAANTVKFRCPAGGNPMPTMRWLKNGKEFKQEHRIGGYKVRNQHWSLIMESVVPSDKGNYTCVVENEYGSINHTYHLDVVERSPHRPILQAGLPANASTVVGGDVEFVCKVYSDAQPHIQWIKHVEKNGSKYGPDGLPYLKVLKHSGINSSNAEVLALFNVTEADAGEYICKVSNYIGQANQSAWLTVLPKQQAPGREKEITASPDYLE
Experimental: (§1) For kinetic measurements, experiments were performed in which the antibodies were immobilized to the sensor chip surface and the ability of the FGFR proteins described above listed in Table 1 to bind in free solution was determined Briefly, 50 μg/ml of anti-human Fc antibody at pH 4.75 was immobilized on a CM5 sensor chip through amine coupling at flow rate of 10 μl/minute on all four flow cells to reach 6000 RUs. […] Subsequently, 0.078-100 nM of FGFR receptors, diluted in a 2-fold series, were injected at a flow rate of 80 μl/min for 7 min over both reference and test flow cells. Dissociation of the binding was followed for 10 min using HBS-EP⁺ supplemented with 0.5 mg/ml of BSA and 10 μg/ml heparin as running buffer. After each injection cycle, the chip surface was regenerated with 10 mM glycine, pH 2.0 at 60 μl/min for 70 s.

[2] = biological target: T2, Cynomolgus monkey FGFR2 IIIb D1-3 (cynomolgus monkey); experiment: SPR Biacore, method as Example 2
T2 construct: also called Cyno FGFR2 IIIb
T2 chain: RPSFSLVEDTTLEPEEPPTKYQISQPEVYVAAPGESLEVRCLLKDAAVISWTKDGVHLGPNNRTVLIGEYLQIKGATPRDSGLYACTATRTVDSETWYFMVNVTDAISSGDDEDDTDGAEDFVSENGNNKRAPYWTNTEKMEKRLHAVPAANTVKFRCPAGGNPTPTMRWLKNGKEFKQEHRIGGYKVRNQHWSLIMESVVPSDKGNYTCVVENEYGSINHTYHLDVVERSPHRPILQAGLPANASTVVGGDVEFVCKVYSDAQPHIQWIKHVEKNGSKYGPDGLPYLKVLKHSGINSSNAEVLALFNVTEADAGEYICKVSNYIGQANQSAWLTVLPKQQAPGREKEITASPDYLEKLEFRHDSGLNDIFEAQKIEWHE
Experimental: as §1

Human FGFR2 IIIb D1-3 [3] = biological target: T1, Human FGFR2 IIIb D1-3; experiment: SPR Biacore, IgG captured via anti-human Fc, soluble FGFR as analyte
Experimental: (§2) Affinity of the antibodies to FGFR2 species orthologues was determined using Biacore technology using a Biacore T100 instrument (GE Systems) and with CM5 sensor chips.
as §1

[4] = biological target: T2, Cynomolgus monkey FGFR2 IIIb D1-3; experiment: as above
Experimental: as §2, §1

Human FGFR2 IIIb D1-3 [5] = biological target: T1, Human FGFR2 IIIb D1-3; experiment: SPR Biacore, method as Example 2
Experimental: as §1

complement factor Clq = biological target: T3, complement factor Clq (UniProt P02745 23-245; P02746 28-253; P02747 29-245); experiment: ELISA, antibody coated in serial dilution, constant C1q; inferred from about 50% coating
T3 construct: bought (Sigma C1740); also called C1q; Complement component Clq (Sigma C1740)
Experimental: In additional studies, the ability of the unconjugated anti-FGFR2 antibodies to bind the complement factor Clq was evaluated. […] In order to monitor the amount of bound antibody analyte on the microtiterplate, this procedure was performed twice per plate utilizing the second dilution (in triplicate) for determining the coating efficacy of the analyte to the plate.

FGFR2 D2-D3 Construct = biological target: T4, FGFR2 D2-D3 Construct (human); experiment: HDx-MS, antigen incubated 30 min with antibody
T4 construct: E. coli made, not glycosylated; also called E. Coli. derived FGFR2D2-D3 protein
T4 chain: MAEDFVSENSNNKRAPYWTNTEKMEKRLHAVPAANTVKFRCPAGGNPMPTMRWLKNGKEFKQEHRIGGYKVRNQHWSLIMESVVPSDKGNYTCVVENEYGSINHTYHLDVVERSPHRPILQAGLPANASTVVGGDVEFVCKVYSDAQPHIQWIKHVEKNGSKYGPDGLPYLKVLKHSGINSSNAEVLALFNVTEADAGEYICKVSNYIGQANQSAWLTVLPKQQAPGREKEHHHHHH
Experimental: The epitope mapping experiments described in this example were performed on a Waters HDx-MS platform, which includes a LEAP autosampler, nanoACQUITY UPLC System, and Synapt G2 mass spectrometer. The studies were automated by a LEAP autosampler operated by the LeapShell software, which performed initiation of the deuterium exchange reaction, reaction time control, quench reaction, injection onto the UPLC system and digestion time control. The Leap autosampler was equipped with two temperature controlled stacks maintained at 25° C. for HDx reaction and maintained at 2° C. for storage of protein and quench solution, respectively. Triplicate control experiments were carried out on antigen at a deuterium exchange time of 25 minutes. HDX was quenched with quenching buffer (6 M urea and 1 M TCEP pH=2.5). […] Triplicate experiments were carried out on antigen-mAb complex just as the control experiments except in these experiments the antigen in incubated for 30 min with the antibody at 25° C. prior to deuterium exchange.

Human FGFR2 IIIb D1-3 [6] = biological target: T1, Human FGFR2 IIIb D1-3; experiment: SPR Biacore, method as Example 2
Human FGFR2 IIIb D1-3 [7] = biological target: T1, Human FGFR2 IIIb D1-3; experiment: SPR Biacore, similar assay conditions
Human FGFR2 IIIb D1-3 [8] = biological target: T1, Human FGFR2 IIIb D1-3; experiment: SET or Biacore, IgG
Human FGFR4 ECD = biological target: T5, Human FGFR4 ECD (human, UniProt P22455 22-369); experiment: screening of panning outputs for specificity and cross-reactivity (assays of Example 1)
T5 construct: Extracellular domain with C-terminal tag

Rat FGFR2 IIIb D1-3 = biological target: T6, Rat FGFR2 IIIb D1-3 (rat); experiment: SPR Biacore, IgG captured via anti-human Fc, soluble FGFR as analyte
T6 chain: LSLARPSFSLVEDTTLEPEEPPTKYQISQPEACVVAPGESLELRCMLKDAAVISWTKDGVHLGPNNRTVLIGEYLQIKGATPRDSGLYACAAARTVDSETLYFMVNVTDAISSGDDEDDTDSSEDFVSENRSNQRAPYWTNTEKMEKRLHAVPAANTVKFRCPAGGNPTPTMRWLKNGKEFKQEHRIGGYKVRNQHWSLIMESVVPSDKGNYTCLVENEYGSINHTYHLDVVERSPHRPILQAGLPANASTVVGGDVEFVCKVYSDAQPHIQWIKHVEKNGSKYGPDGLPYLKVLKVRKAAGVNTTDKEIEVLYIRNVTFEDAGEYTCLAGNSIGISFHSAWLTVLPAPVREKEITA
Experimental: as §2, §1

Mouse FGFR2 IIIb D1-3 = biological target: T7, Mouse FGFR2 IIIb D1-3 (mouse); experiment: as above
T7 chain: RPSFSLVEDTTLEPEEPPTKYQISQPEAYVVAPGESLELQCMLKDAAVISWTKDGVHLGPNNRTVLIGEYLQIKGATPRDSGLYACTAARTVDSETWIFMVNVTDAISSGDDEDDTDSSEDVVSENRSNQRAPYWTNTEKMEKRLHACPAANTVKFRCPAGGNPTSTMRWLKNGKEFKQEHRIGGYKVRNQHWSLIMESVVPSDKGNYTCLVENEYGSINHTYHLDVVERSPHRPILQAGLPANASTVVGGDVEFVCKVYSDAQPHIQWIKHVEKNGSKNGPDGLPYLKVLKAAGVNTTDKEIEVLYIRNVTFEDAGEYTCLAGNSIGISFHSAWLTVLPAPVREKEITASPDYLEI
Experimental: as §2, §1

T3 sequence (P02745 23-245 limits assumed, chain 1 of 3): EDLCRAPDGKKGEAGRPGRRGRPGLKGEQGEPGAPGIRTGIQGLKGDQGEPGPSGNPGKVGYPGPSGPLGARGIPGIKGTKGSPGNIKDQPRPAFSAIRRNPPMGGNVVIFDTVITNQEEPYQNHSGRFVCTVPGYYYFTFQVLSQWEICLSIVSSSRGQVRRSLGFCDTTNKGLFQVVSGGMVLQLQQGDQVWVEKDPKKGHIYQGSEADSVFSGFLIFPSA
T3 sequence (P02746 28-253 limits assumed, chain 2 of 3): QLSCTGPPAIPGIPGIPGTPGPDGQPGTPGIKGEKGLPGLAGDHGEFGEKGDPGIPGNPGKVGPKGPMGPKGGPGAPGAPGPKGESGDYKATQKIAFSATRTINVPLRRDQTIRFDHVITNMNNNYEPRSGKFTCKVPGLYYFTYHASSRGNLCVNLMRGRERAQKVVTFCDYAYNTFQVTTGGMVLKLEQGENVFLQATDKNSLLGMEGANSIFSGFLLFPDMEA
T3 sequence (P02747 29-245 limits assumed, chain 3 of 3): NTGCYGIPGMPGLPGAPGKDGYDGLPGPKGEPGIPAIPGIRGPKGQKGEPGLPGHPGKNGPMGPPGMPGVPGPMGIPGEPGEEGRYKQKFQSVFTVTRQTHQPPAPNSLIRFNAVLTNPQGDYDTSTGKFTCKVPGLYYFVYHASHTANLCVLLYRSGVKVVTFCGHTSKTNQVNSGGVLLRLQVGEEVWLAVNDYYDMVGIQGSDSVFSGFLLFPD

B1: mAb10164 (antibody, human IgG1, lambda, V domains shown)
VH: QVQLVESGGGLVKPGGSLRLSCAASGFTFSSYALSWVRQAPGKGLEWVGRIRSKIDGGTTDYAAPVKGRFTISRDDSKNTLYLQMNSLKTEDTAVYYCARDRSPSDSSAFAIWGQGTLVTVSS
VL: DIELTQPPSVSVSPGQTASITCSGDNLGSQYVDWYQQKPGQAPVLVIYDDNDRPSGIPERFSGSNSGNTATLTISGTQAEDEADYYCQSWDSLSVVFGGGTKLTVLG
notes: HuCAL human IgG1
Kd (Human FGFR2 IIIb D1-3 [1]): 2 nM | Kd [2]: 9 nM | Kd (Human FGFR2 IIIb D1-3 [3]): 19 nM | Kd [4]: 16 nM | Kd (Human FGFR2 IIIb D1-3 [5]): 2 nM | C1q binding capacity against the other antibodies (complement factor Clq): ~2 fold | binding result (FGFR2 D2-D3 Construct): binds

B2: mAb20437 (antibody, human IgG1, lambda, V domains shown)
VH: EVQLVESGGGLVKPGGSLRLSCAASGFTFSSYALSWVRQAPGKGLEWVGRIRSRIEGGTTDYAAPVRGRFTISRDDSKNTLYLQMNSLKTEDTAVYYCARDRSPSDSSAFAIWGQGTLVTVSS
VL: SYELTQPLSVSVALGQTARITCSGDNLGSQYVDWYQQKPGQAPVLVIYDDNDRPSGIPERFSGSNSGNTATLTISRAQAGDEADYYCQSWDSLSVVFGGGTKLTVLG
notes: human IgG1
Kd (Human FGFR2 IIIb D1-3 [6]): 3.1 nM

B3: mAb20562 (antibody, human IgG1, kappa, V domains shown)
VH: EVQLLESGGGLVQPGGSLRLSCAASGFTFSDYAMSWVRQAPGKGLEWVSVIEGDASYTHYADSVRGRFTISRDNSKNTLYLQMNSLRAEDTAVYYCARERTYSSAFDYWGQGTLVTVSS
VL: DIQMTQSPSSLSASVGDRVTITCRASQDISSDLNWYQQKPGKAPKLLIYDASNLQSGVPSRFSGSGSGTDFTLTISSLQPEDFATYYCQQHYSPSHTFGQGTKVEIKR
notes: human IgG1
Kd (Human FGFR2 IIIb D1-3 [7]): 9 nM

B4: mAb20811 (antibody, human IgG1, kappa, V domains shown)
VH: QVQLLESGGGLVQPGGSLRLSCAASGFTFSDYAMSWVRQAPGKGLEWVSTIEGDSNYIEYADSVKGRFTISRDNSKNTLYLQMNSLRAEDTAVYYCARERTYSSAFDYWGQGTLVTVSS
VL: DIQMTQSPSSLSASVGDRVTITCRASQDISSDLNWYQQKPGKAPKLLIYDASNLQSGVPSRFSGSGSGTDFTLTISSLQPEDFATYYCHQWYSTLYTFGQGTKVEIKR
notes: IgG
Kd (Human FGFR2 IIIb D1-3 [8]): 0.11 nM

B5: mAb12422 (antibody, human IgG1, kappa, V domains shown)
VH: QVQLVQSGAEVKKPGSSVKVSCKASGGTFSSYAISWVRQAPGQGLEWMGYISPYMGETHYAQKFQGRVTITADESTSTAYMELSSLRSEDTAVYYCARESYEYFDIWGQGTLVTVSS
VL: DIQMTQSPSSLSASVGDRVTITCRASQSISNDLAWYQQKPGKAPKLLIYATSILQSGVPSRFSGSGSGTDFTLTISSLQPEDFATYYCLQYYDYSYTFGQGTKVEIKR
notes: HuCAL human IgG1
binding result (Human FGFR4 ECD): binds | Kd (Human FGFR2 IIIb D1-3 [3]): 5.1 nM | Kd [4]: 7.4 nM | Kd (Rat FGFR2 IIIb D1-3): 9.7 nM | Kd (Mouse FGFR2 IIIb D1-3): 7.7 nM | Kd (Human FGFR2 IIIb D1-3 [5]): 5.1 nM

B6: mAb12439 (antibody, human IgG1, kappa, V domains shown)
VH: QVQLVQSGAEVKKPGASVKVSCKASGYTFTSYDISWVRQAPGQGLEWMGWINPYNGGTNYAQKFQGRVTMTRDTSISTAYMELSRLRSEDTAVYYCAREGSGMIVYPGWSYAFDYWGQGTLVTVSS
VL: DIQMTQSPSSLSASVGDRVTITCRASQDISNDLGWYQQKPGKAPKLLIYAASSLQSGVPSRFSGSGSGTDFTLTISSLQPEDFATYYCQQHYHTPNTFGQGTKVEIKR
notes: HuCAL human IgG1
binding result (Human FGFR4 ECD): binds | Kd (Human FGFR2 IIIb D1-3 [3]): 15 nM | Kd [4]: 5.6 nM | Kd (Rat FGFR2 IIIb D1-3): 16 nM | Kd (Mouse FGFR2 IIIb D1-3): 15 nM | Kd (Human FGFR2 IIIb D1-3 [5]): 15 nM

B7: mAb11725 (antibody, human IgG1, lambda, V domains shown)
VH: QVQLLESGGGLVQPGGSLRLSCAASGFTFNTYWLHWVRQAPGKGLEWVSVISSDSSSTYYADSVKGRFTISRDNSKNTLYLQMNSLRAEDTAVYYCARDSRLDYWGQGTLVTVSS
VL: DIELTQPPSVSVSPGQTASITCSGDSIGDTYVDWYQQKPGQAPVLVIYDDIDRPSGIPERFSGSNSGNTATLTISGTQAEDEADYYCYVYAWTGTSNVFGGGTKLTVLG
notes: HuCAL human IgG1
Kd (Human FGFR2 IIIb D1-3 [3]): 26 nM | Kd [4]: 7.3 nM | Kd (Rat FGFR2 IIIb D1-3): 140 nM | Kd (Mouse FGFR2 IIIb D1-3): 130 nM | Kd (Human FGFR2 IIIb D1-3 [5]): 3.3 nM

B8: mAb12947 (antibody, human IgG1, kappa, V domains shown)
VH: QVQLVQSGAEVKKPGSSVKVSCKASGGTFSSYAISWVRQAPGQGLEWMGSIQPTAGPARYAQKFQGRVTITADESTSTAYMELSSLRSEDTAVYYCARASLYSVATGSYWKVYHPFDSWGQGTLVTVSS
VL: DIQMTQSPSSLSASVGDRVTITCRASQDIYSYLAWYQQKPGKAPKLLIYDASSLQSGVPSRFSGSGSGTDFTLTISSLQPEDFATYYCQQADQYPVTFGQGTKVEIKR
notes: HuCAL human IgG1
Kd (Human FGFR2 IIIb D1-3 [3]): 2.7 nM | Kd [4]: 2.4 nM | Kd (Rat FGFR2 IIIb D1-3): 5.1 nM | Kd (Mouse FGFR2 IIIb D1-3): 3.1 nM | Kd (Human FGFR2 IIIb D1-3 [5]): 2.7 nM
